{"source": "paper PMC7593816", "key": {"[1]": {"target": "HTR2A N107A^2.37 mutant (human) (UniProt P28223)"}, "[2]": {"target": "HTR2A R185A^ICL2 mutant (human) (UniProt P28223)"}}, "data": [{"substance": "Gαq wild-type (GαrLuc8 of the BRET2 assay) (from UniProt P50148 1-359) (natural protein)", "values": [{"measurement": "BRET2 assay, decrease of the efficacy of 25CN-NBOH", "setting": "[1]", "value": 50, "unit": "%"}, {"measurement": "BRET2 assay, decrease of the efficacy of 25CN-NBOH", "setting": "[2]", "value": 50, "unit": "%"}]}]}
